Where two headings read alike, the source gives them in different places.
Experiments:
Experiment in all cases: ITC
TRBP-D1 = target: T1, TRBP-D1 (Homo sapiens, UniProt Q15633 19-99)
T1 sequence: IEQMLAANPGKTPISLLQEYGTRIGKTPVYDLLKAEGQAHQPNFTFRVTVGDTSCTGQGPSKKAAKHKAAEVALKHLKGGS

TRBP-D12 [1] = target: T2, TRBP-D12 (Homo sapiens, UniProt Q15633 19-228)
T2 sequence: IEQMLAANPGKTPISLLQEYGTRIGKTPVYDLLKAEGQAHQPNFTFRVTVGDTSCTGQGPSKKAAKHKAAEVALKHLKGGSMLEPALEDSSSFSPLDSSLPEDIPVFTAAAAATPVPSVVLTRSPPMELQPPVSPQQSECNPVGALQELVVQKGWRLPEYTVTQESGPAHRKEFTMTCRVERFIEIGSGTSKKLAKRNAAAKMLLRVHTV

TRBP-D2 = target: T3, TRBP-D2 (Homo sapiens, UniProt Q15633 157-228)
T3 sequence: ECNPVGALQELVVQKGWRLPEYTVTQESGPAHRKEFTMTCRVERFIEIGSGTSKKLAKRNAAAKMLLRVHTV

TRBP-D12 [2] = target: T2, TRBP-D12; remark: listed apart in the source

B1: pre-miR-155 (structured_RNA)
RNA: GGAAUGCUAAUCGUGAUAGGGGUUUUUGCCUCCAACUGACUCCUACAUAUUAGCAUUCCCA
For B1, the Kd (TRBP-D1) was 15400 ± 800 nM, the Kd (TRBP-D12 [1]) was 500 nM and the Kd (TRBP-D2) was 3700 ± 500 nM.

B2: miR-155/miR-155* (dsRNA)
RNA 1: GGAAUGCUAAUCGUGAUAGGCCU
RNA 2: GGCCUACAUAUUAGCAUUCCCA
B2 was tested, and the Kd (TRBP-D12 [2]) was 1000 ± 700 nM.

Source: paper PMC3627579
